In publication doi:10.1101/2025.06.09.658552 one finds Kd, koff and kon data, which are given here for 3 molecules.

“And” between values parts separate entries of the source, which are not always exact repeats. Identical values can stand only once. Like-named read-outs stand apart in the source and are kept apart here.

Assay [1] deals with alpha/beta-tubulin (Saccharomyces cerevisiae) (UniProt P09733). Particulars: cited from earlier work.
Assay [2] shares this target. The following applies: cited from earlier work. The source holds these as a separate data set.
In assay [3] the target is biotinylated polymerization-blocked yeast αβ-tubulin, LR1 (β: T175R,V179R) (yeast) (UniProt P09733). Briefly: BLI; biotinylated polymerization-blocked tubulin immobilised on streptavidin (SA) biosensors, OctetR8; TOG2 2.3 to 200 nM in solution; 90 mM PIPES, 10 mM NaCl, 1 mM MgCl2, 1 mM EGTA, 1 mM GTP, 0.1% BSA, 0.005% triton X-100; association 300 s, dissociation 300 s; 1:1 model, global kinetic fit and steady-state amplitudes. (BLI is a label-free optical method that tracks binding on a fibre tip over time.)

For orientation: Kd means the constant that tells how readily two partners part at equilibrium. For the molecule Stu2 TOG2 (from UniProt P46675), the dissociation constant Kd in assay [1] was 160 nM.

Consider Stu2 TOG1 (from UniProt P46675), for which, in assay [2], the Kd was 70 nM.

B1: Stu2-TOG2 (318–560) (domain or fragment)
chain: MLPEETILDKLPKDFQERITSSKWKDRVEALEEFWDSVLSQTKKLKSTSQNYSNLLGIYGHIIQKDANIQAVALAAQSVELICDKLKTPGFSKDYVSLVFTPLLDRTKEKKPSVIEAIRKALLTICKYYDPLASSGRNEDMLKDILEHMKHKTPQIRMECTQLFNASMKEEKDGYSTLQRYLKDEVVPIVIQIVNDTQPAIRTIGFESFAILIKIFGMNTFVKTLEHLDNLKRKKIEETVKTL
The koff is the rate constant with which the complex falls apart. The low end stands for a long-lived complex, the high end for a short-lived complex. A word on the kon: it is the rate constant with which the complex forms. Low values mean slower complex formation, high ones faster complex formation. With B1, in assay [3], the Kd is 8.9 nM and 9.6 nM; the koff turned out to be 0.03 s⁻¹; the kon turned out to be 3.2e+06 M⁻¹ s⁻¹.
